We go through 19 molecules from patent US20220112288A1 (published 2022).

What is called Kd is a measure of binding affinity in units of concentration. In general, koff refers to the rate constant with which the complex falls apart. For orientation: kon means the rate constant with which the complex forms.

Bounds are passed on as bounds.

For assay [1], the target named is T1, human CD4 on human PBMCs (human, UniProt P01730 26-458).
T1 construct: whole, on cells; the CD4-positive gate was set with the control antibodies OKT4 and RPA-T4; also called hCD4
The assay is described as follows: FACS, clonal hybridoma supernatant on human PBMCs.

In assay [2] the target is T2, Recombinant human CD4 (R&D Systems, Cat. 10327-CD) (human, UniProt P01730 26-390, limits assumed).
T2 construct: Bought reagent; also called huCD4
The assay is described as follows: BLI Octet, non-clonal supernatant on AMC sensor, 100 nM human CD4.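 Further: hybridoma supernatants diluted 1:3, antibodies captured on AMC biosensors, association and dissociation with CD4 followed, curves smoothed and fit locally with 1:1 binding model for single-point kinetics.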 On the technique in general: Biolayer interferometry detects binding as a change in optical thickness at a sensor tip.

Assay [3] addresses T2, Recombinant human CD4 (R&D Systems, …). The assay can be described thus: BLI Octet, non-clonal supernatant on AMC sensor, 100 nM human CD4, 1:1 local fit.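 Further: Single-concentration kinetics per supernatant, with the 1:1 model fitted across both the association and dissociation phases of the sensorgram.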

B1: 75110_14H13A (antibody, V domains shown)
VH: EVQLVESGGGLVQPGGSLRLSCAASGFTFSNYDMHWVRQATGKGLEWVSTIGTAGDTYYPGSVKGRFTISRKNAKNSLYLQMISLRAGDTAVYYCARGGDYYYGMDVWGQGTTVTVSS
VL: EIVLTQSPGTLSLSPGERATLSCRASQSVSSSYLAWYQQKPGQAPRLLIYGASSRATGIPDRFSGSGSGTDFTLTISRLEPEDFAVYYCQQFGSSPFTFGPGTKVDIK
notes: Tested as clonal hybridoma supernatant from AlivaMab Mouse Kappa mice: human variable regions, human kappa, mouse Fc
On to B1, for which, in assay [1], the “% CD4 Stain” value worked out at 35.3% and the “gMFI of CD4+” value was determined as 160000 gMFI.

B2: 75110_13C07A (antibody, V domains shown)
VH: EVQLVESGGVLVQPGGSLRLSCAASGFTFSNYDMHWVRQATGKGLEWVSTIGTAGDTYYPGSVKGRFTLSRENAKNSLYLQMHSLRAGDTAVYYCARGAYGYYGMDVWGQGTTVTVSS
VL: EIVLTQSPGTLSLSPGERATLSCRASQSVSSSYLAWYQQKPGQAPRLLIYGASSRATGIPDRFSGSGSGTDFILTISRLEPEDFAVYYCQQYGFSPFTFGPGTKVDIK
notes: as for B1
B2: in assay [1], the “% CD4 Stain” value is 37.5% and the “gMFI of CD4+” value was 56000 gMFI.

B3: 75110_10O16A (antibody, V domains shown)
VH: EVQLVESGGGLVQPGGSLRLSCAASGFTFSNSDMHWVRQATGKGLEWVSTIGTAGDTYYPGSVKGRFTISRENAKNSLYLQMNSLRAGDTAVYYCARGGLYYYGMDVWGQGTTVTVSS
VL: ENVLTQSPGTLSLSPGERATLSCRASQSVSSSYLAWYQQKPGQAPRLLIYGASSRATGIPDRFSGSGSGTDFTLTISRLEPEDFAVYYCHQFGSSPFTFGPGTKVDIK
notes: Tested as clonal hybridoma supernatant from AlivaMab Mouse Kappa mice: human variable regions, human kappa, mouse Fc (detected with anti-mouse Fc gamma); also called 75110_10016A
In the case of B3, in assay [1], the “% CD4 Stain” value was 37.2% and the “gMFI of CD4+” value was 133000 gMFI.

B4: 75110_14G10A (antibody, V domains shown)
VH: EVQLVESGGGLVKPGGSLRLSCAASGFTFSSYSMNWVRQAPGKGLEWVSFISSSSSYIYYADSVKGRFTISRDNAKNSLYLQMNSLRAEDTAVYYCARERGDDYGDYEGAFDIWGQGTMVTVSS
VL: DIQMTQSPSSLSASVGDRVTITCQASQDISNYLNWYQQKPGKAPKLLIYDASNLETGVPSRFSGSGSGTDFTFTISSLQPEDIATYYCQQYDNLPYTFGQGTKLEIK
notes: as for B1
On to B4, for which, in assay [1], the “% CD4 Stain” value stood at 31.1% and the “gMFI of CD4+” value stood at 241000 gMFI.

B5: 75110_04P08A (antibody, V domains shown)
VH: QVQLQQWGAGLLKPSETLSLTCAVYGGSLSGYYWSWIRQSPGKGLEWIGEINQSGSTNYNPSLKSRVTISVDTSKDQFSLRLTSVTAADTAVYYCTRVLNWFDPWGRGTLVTVSS
VL: DIQMTQSPSSVSASVGDRVTLTCRASQDISNWLAWYQQKPGKAPKLLIYAASSLQSGVPSRFSGSGSGTDFTLTISSLQTEDFATYYCQQANSFPYTFGQGTKLEIK
notes: Tested as non-clonal AlivaMab Mouse Kappa hybridoma supernatant, captured by anti-mouse IgG Fc sensor
As to B5, in assay [2], the Response came to 0.17. In assay [3], the Kd is 1.8 nM, the koff stood at 0.00022 s⁻¹ and the kon stood at 120000 M⁻¹ s⁻¹.

B6: 75110_12K21A (antibody, V domains shown)
VH: QVQLQQWGAGLLKPSETLSLTCAVSGGSFSGYYWSWIRQPPGKGLEWIGEINHSGSTNCNPSLKSRVTISVDTSNNQFSLKLSSVTAADTAVYYCARVLNYFDYWGQGTLVTVSS
VL: DIQMTQSPSSVSASVGDRVTITCRASPDIANWLAWYQQKPGKAPELLIYAASSLQSGVPSRFSGSGSGTDFTLTISSLQPEDFATYFCQQANSFPLTFGGGTKVESK
notes: as for B5
Regarding B6, the Response in assay [2] is 0.26. Besides, in assay [3], the Kd is 3 nM, the koff turned out to be 0.0006 s⁻¹ and the kon amounted to 200000 M⁻¹ s⁻¹.

B7: 75110_11D03A (antibody, V domains shown)
VH: EVQLVESGGGLVQPGGSLRLSCAASGFTFSSYWMSWVRQAPGKGLEWVANINQDGNEKYYVDSVKGRFTISRDNAKNSLFLQMNSLRAEDTAVYYCAREGGQWLALDYWGQGALVTVSS
VL: DIQMTQSPSSVSASVGDRVTITCRASQGISSWLAWYQQKPGKAPKFLISGASSLQSGVPSRFSGSGSGTDFTLTISSLQPEDFATYYCQQANSFPWTFGQGTKVEIK
notes: as for B1
As to B7, in assay [1], the “% CD4 Stain” value was found to be 30.1% and the “gMFI of CD4+” value was found to be 217000 gMFI.

B8: 75110_06D16A (antibody, V domains shown)
VH: QVQLQQWGAGLLKPSETLSLTCAVYGGSFSGYYWSWIRQPPGKGLEWIGEINHSGSTNYNPSLKSRVTISVVTSKNQFSLKLSSVTAADTAVYYCARVLNWFDPWGQGTLVTVSS
VL: DIQMTQSPSSVSASVGDRVTITCRASQDIADWLAWYQQKPGKAPKLLIYAASSFQSGVPSRFSGSGSGTDFTLTISSLQPEDFATYFCQQANSFPYTFGQGTKLEIK
notes: as for B5
In the case of B8, in assay [2], the Response came to 0.09. Also, in assay [3], the Kd amounted to 2.5 nM, the koff amounted to 0.00047 s⁻¹ and the kon was 190000 M⁻¹ s⁻¹.

B9: 75110_05B13A (antibody, V domains shown)
VH: QVLLEQWGAGLLKPSETLSLTCAVYGGSFSGYYWTWIRQPPGKGLEWIGEINHRGSTNYNPSLKSRVTISIDTSKNQFSLKVKSVTAADTAMYYCTRPDSNWFDPWGQGTLVTVSS
VL: DIQMTQSPSSVSASVGDRVTITCRASQDISNWLAWYQQKPGKAPKLLIFAASSLQSGVPSRFSGSGSGTDFTLTISSLQPEDFATYYCQQANSFPLTFGGGTKVEIK
notes: as for B5
With B9, in assay [2], the Response was found to be 0.03. Besides, in assay [3], the Kd was below 0.001 nM, the koff is below 1e-07 s⁻¹ and the kon is 200000 M⁻¹ s⁻¹.

B10: 75110_13P21A (antibody, V domains shown)
VH: QVQLQQWGAGLLKPSETLSLTCAVSGGSFSGYYWSWIRQPPGKGLEWIGEINHSGSTNCNPSLKSRVTISVDTSNNQFSLKLSSVTAADTAVYYCARVLNYFDYWGQGTLVTVSS
VL: DIQMTQSPSSVSASVGDRVTITCRASPDIANWLAWYQQKPGKAPELLIYAASSLQSGVPSRFSGSGSGTDFTLTISSLQPEDFATYFCQQANSFPLTFGGGTKVESK
notes: as for B1
B10: in assay [1], the “% CD4 Stain” value was determined as 27.2% and the “gMFI of CD4+” value amounted to 31800 gMFI.

B11: 75110_13P22A (antibody, V domains shown)
VH: QVQLQQWGAGLLKPSETLSLTCAAYGGSFSGYYWSWIRQSPGKGLEWIGEINQSGNTNYNPSLKSRVTISADTSKNQFSLKLSSVTAADTAVYYCARVLNWFDYWGQGILVTVSS
VL: DIQMTQSPSSVSASVGDRVTITCRASQGISDWLAWYQQKSGKAPDLLIFAASSLQSGVPSRFSGSGSGTDFTLTISSLQPEDFATYYCQQANSFPYTFGQGTKLEIK
notes: as for B1
On to B11, for which, in assay [1], the “% CD4 Stain” value turned out to be 37.5% and the “gMFI of CD4+” value was found to be 185000 gMFI.

B12: 75110_12K21A (antibody, V domains shown)
VH: QVQLQQWGAGLLKPSETLSLTCAVSGGSFSGYYWSWIRQPPGKGLEWIGEINHSGSTNCNPSLKSRVTISVDTSNNQFSLKLSSVTAADTAVYYCARVLNYFDYWGQGTLVTVSS
VL: DIQMTQSPSSVSASVGDRVTITCRASPDIANWLAWYQQKPGKAPELLIYAASSLQSGVPSRFSGSGSGTDFTLTISSLQPEDFATYFCQQANSFPLTFGGGTKVESK
notes: as for B1
Take B12: in assay [1], the “% CD4 Stain” value was 37.2% and the “gMFI of CD4+” value came to 147000 gMFI.

B13: 75110_13P22A (antibody, V domains shown)
VH: QVQLQQWGAGLLKPSETLSLTCAAYGGSFSGYYWSWIRQSPGKGLEWIGEINQSGNTNYNPSLKSRVTISADTSKNQFSLKLSSVTAADTAVYYCARVLNWFDYWGQGILVTVSS
VL: DIQMTQSPSSVSASVGDRVTITCRASQGISDWLAWYQQKSGKAPDLLIFAASSLQSGVPSRFSGSGSGTDFTLTISSLQPEDFATYYCQQANSFPYTFGQGTKLEIK
notes: as for B5
Take B13: the Response in assay [2] worked out at 0.24. Also, in assay [3], the Kd amounted to 0.68 nM, the koff came out at 0.00013 s⁻¹ and the kon was determined as 190000 M⁻¹ s⁻¹.

B14: 75110_13P21A (antibody, V domains shown)
VH: QVQLQQWGAGLLKPSETLSLTCAVSGGSFSGYYWSWIRQPPGKGLEWIGEINHSGSTNCNPSLKSRVTISVDTSNNQFSLKLSSVTAADTAVYYCARVLNYFDYWGQGTLVTVSS
VL: DIQMTQSPSSVSASVGDRVTITCRASPDIANWLAWYQQKPGKAPELLIYAASSLQSGVPSRFSGSGSGTDFTLTISSLQPEDFATYFCQQANSFPLTFGGGTKVESK
notes: as for B5
For the molecule B14, the Response in assay [2] amounted to 0.12. In assay [3], the Kd amounted to 2.04 nM, the koff turned out to be 0.000315 s⁻¹ and the kon turned out to be 154000 M⁻¹ s⁻¹.

B15: 75110_12H19A (antibody, V domains shown)
VH: EVQLVESGGGLVQPGGSLRLSCAASGFTFSSYWMSWVRQAPGQGLEWVANINEDGNEKYHVDSVKGRLTISRDNAKNSLYLQMNSLRGVDTAVYFCAREGGQWLALDYWGQGALVTVSS
VL: DIQMTQSPSSVSASVGDRVSITCRASQGISSWLAWYQQKPGKAPKLLIYGASGLQSGVPSRFSGSGSGTDFTLTISSLQPEDFATYYCQQANSFPWTFGQGTKVEIK
notes: as for B1
With B15, in assay [1], the “% CD4 Stain” value stood at 36.8% and the “gMFI of CD4+” value was 284000 gMFI.

B16: 75110_12C19A (antibody, V domains shown)
VH: EVQLVESGGGLVQPGGSLRLSCAASGFTFSSYWMSWVRQAPGKGLEWVANIKEDGSDKYYVDSVKGRFTISRDNAKNSLYLQMNSLRAEDTAVHYCVREGGQWLALDYWGQGTLVTVSS
VL: DIQMTQSPSSVSGSVGDRVTITCRASQGISSWLAWYQQKPGKAPKLLIYGASSLQSGVPSRFSGSGSGTDFTLTISSLQPEDFVTYYCQQANSFPWTFGQGTKVEIK
notes: as for B1
With B16, in assay [1], the “% CD4 Stain” value was 24.4% and the “gMFI of CD4+” value turned out to be 56500 gMFI.

B17: 75110_13C13A (antibody, V domains shown)
VH: QVQLQQWGAGLLKPSETLSLTCAVSGGSFSGYYWSWIRQPPGKGLEWIGEINHSGSTNCNPSLKSRVTISVDTSKNQFSLKLSSVTAADTAMYYCARVLNFFDYWGQGTLVTVSS
VL: DIQMTQTPSSVSASVGDRVTITCRASPGISNWLAWYQQKPGKAPELLIYAASSLQSGVPSRFSGSGSGTDFTLTISSLQPEDFATYFCQQANSFPLTFGGGTKVESK
notes: as for B1
For B17, in assay [1], the “% CD4 Stain” value worked out at 28.6% and the “gMFI of CD4+” value worked out at 123000 gMFI.

B18: 75110_12H17A (antibody, V domains shown)
VH: EVQLVESGGGLVQPGGSLRLSCAASGFTFSDYWMSWVRQAPGKGLEWVANIKEDGNEKYYVDSVKGRFTISRDNAKNSLFLQMNSLRAEDTAVYYCAREGGQWLALDYWGQGALVTVSS
VL: DIQMTQSPSSVSASVGDRVTITCRASQGISSWLAWYQQKPGKAPKFLISGASSLQSGVPSRFTGSGSGTDFTLTISSLQPEDFATYYCQQANSFPWTFGQGTKVEIK
notes: as for B1
Turning to B18, in assay [1], the “% CD4 Stain” value was determined as 37.3% and the “gMFI of CD4+” value turned out to be 197000 gMFI.

B19: 75110_13C13A (antibody, V domains shown)
VH: QVQLQQWGAGLLKPSETLSLTCAVSGGSFSGYYWSWIRQPPGKGLEWIGEINHSGSTNCNPSLKSRVTISVDTSKNQFSLKLSSVTAADTAMYYCARVLNFFDYWGQGTLVTVSS
VL: DIQMTQTPSSVSASVGDRVTITCRASPGISNWLAWYQQKPGKAPELLIYAASSLQSGVPSRFSGSGSGTDFTLTISSLQPEDFATYFCQQANSFPLTFGGGTKVESK
notes: as for B5
Consider B19, for which, in assay [2], the Response stood at 0.19. For the same molecule, in assay [3], the Kd is 3.2 nM, the koff was found to be 0.00051 s⁻¹ and the kon turned out to be 160000 M⁻¹ s⁻¹.
